The values below come from the DeepSol protein solubility set.

The series can be described thus: soluble on expression in E. coli; label from the status in PepcDB or PDB records.
Take “MRKEAIHHRSTDNFAYAYDSETLHLRLQTKKNDVDHVELLFGDPYEWHDGAWQFQTMPMRKTGSDGLFDYWLAEVKPPYRRLRYGFVLRAGGEKLVYTEKGFYHEAPSDDTAYYFCFPFLHRVDLFQAPDWVKDTVWYQIFPERFANGNPAISPKGARPWGSEDPTPTSFFGGDLQGIIDHLDYLADLGITGIYLTPIFRAPSNHKYDTADYFEIDPHFGDKETLKTLVKRCHEKGIRVMLDAVFNHCGYEFAPFQDVLKNGAASRYKDWFHIREFPLQTEPRPNYDTFAFVPHMPKLNTAHPEVKRYLLDVATYWIREFDIDGWRLDVANEIDHQFWREFRQAVKALKPDVYILGLIWHDAMPWLRGDQFDAVMNYPLADAALRFFAKEDMSASEFADRLMHVLHSYPKQVNEAAFNLLGSHDTPRLLTVCGGDVRKVKLLFLFQLTFTGSPCIYYGDEIGMTGGNDPECRKCMVWDPEKQNKELYEHVKQLIALRKQYRALRRGDVAFLTADDEVNHLVYAKTDGNETVMIIINRSNEAAEIPMPIDARGKWLVNLLTGERFAAEAETLCVSLPPYGFVLYAVESW”: the “soluble on expression in E. coli” value is on record as “soluble”. For “MTQVTVKELAQVVDTPVERLLLQMRDAGLPHTSAEQVVTDSEKQALLTHLKGSHGDRASEPRKITLQRKTTTTLKVGGSKTVSVEVRKKKTYVKRSPDEIEAERQRELEEQRAAEEAERLKAEEAAARQRAEEEARKAEEAARAKAAQEAAATAGAEPAVVADVAVAEPVAKPAAVEERKKEEPRRVPKRDEDDDRRDRKHTQHRPSVKEKEKVPAPRVAPRSTDEESDGYRRGGRGGKSKLKKRNQHGFQNPTGPIVREVNIGETITVAELAAQMSVKGAEVVKFMFKMGSPVTINQVLDQETAQLVAEELGHKVKLVSENALEEQLAESLKF” the value was “not soluble”.

Take “MGSDKIHHHHHHMNILDGIKSLALKLGSKQDQTYYARGLSLTDDLMQIEALWRDNWIANKVCIKRSEDMVRNWRDIFSNDLKSEQLDEFTKLERRLKLRETLTKALQWSSLYGAVGLLVVTDTINITSPLQPTERLKRLIILPKWKISPTGQRDDDVFSPNFGRYSEYTITGGTQSVSVHHSRLLIINANDAPLSDNDIWGVSDLEKIIDVLKRFDSASANVGDLIFESKIDIFKIAGLSDKISAGLENDVAHVISAVQSIKSATNSLLLDAENEYDRKELSFGGLKDLLTEFRNAVAGAADMPVTILFGQSVSGLASGDEDIQNYHESIHRLQETRLRPVLEVLDTLLCNELFGGQPDDWWFEFLPLTVVKQEQQVNMLNTFATAANTLIQNGVVNEYQVANELRESGLFANISADDIEEMKNANELARNFEEPEGESTQVQASEDE”: the “soluble on expression in E. coli” value was “not soluble”.

On to “MPYYVYLLACGKHGTLYLGVTNDLVRRVHEHRSKATPGFSEHYGVGRLVWFEIYHDAITAITREKQLKKWRRDWKVRLIENQNPDWVDLYPGICR”, for which the “soluble on expression in E. coli” value is reported as “not soluble”. Consider “MGSDKIHHHHHHGGCVRDVIDDVPGTDEDYAADKKDVVLIRMGTNDAEVKDITSRLFNNIPSSWEIGKKTIVDYDKMKDPETELNADIKNPKIYMTVILNIDDVISGKYPISLFRMLKFYKRDFYVIATQSTPEQKEEMLSLIGVYMEAGYYAINYDNVQHYRIFPSADPYAKDNMIGKGVASFNQKLLTRSADTLPEGNDPDPGYNAQMADKEALKRIEIYNRIYGYAQGDMNYSMQAVPYKMKPGAAPDVIIDNSWAIDAYNFQIYSKNNNCILSITNNAGNGFTANIKDYTTPKGANVYAYIWNLMREASSEITVHSDGGIFREISYQPQTVNHGASYTENSFWKVSVSVSPTKLEDKPWEAFKVSFGKESSTEVSYKTKSMDYSCKGQFGNGLYSKLWQFIPGEFYDRAEAFVYETSQGLRWIDAAQAMTPNYVTWGGWTLRQNYLNHINNSMKLHQQQCIYSLESDAQPGVVSVAITDAIDLQKTYVHYNCGIRYGHDSARTDLKMSKMVWIDFRQWDN”, for which the “soluble on expression in E. coli” value was “not soluble”. For “HMTELLKNHVAGQWIAGTGAGITLTDPVTGVALVRVSSEGLDLARAFSFAREDGGAALRALTYAQRAARLADIVKLLQAKRGDYYAIATANSGTTRNDSAVDIDGGIFTLSYYAKLGASLGEVHALRDGSAESLSKDRSFSAQHVLSPTRGVALFINAFNFPSWGLWEKAAPALLSGVPVIVKPATATAWLTQRMVADVVDAGILPPGALSIICGSSAGLLDQIRSFDVVSFTGSADTAATLRAHPAFVQRGARLNVEADSLNSAILCADATPDTPAFDLFIKEVVREMTVKSGQKCTAIRRAFVPEAALEPVLEALKAKLAKITVGNPRNDAVRMGSLVSREQYENVLAGIAALREEAVLAYDSSAVPLIDADANIAACVAPHLFVVNDPDNATLLHDVEVFGPVASVAPYRVTTDTNALPEAHAVALARRGQGSLVASIYSNDDAHLGRLALELADSHGRVHAISPSVQHSQTGHGNVMPMSLHGGPGRAGGGEELGGLRALAFYHRRSAIQAASAAIGTLTQATHWPAA”, the “soluble on expression in E. coli” value was “soluble”. For “MNSRQQSILQMVVDKGQMSVAELAKITGVSEVTIRQDLNTLEKQSYLRRAHGFAVSLESDDVETRMMTNYTLKRRLAEFAASLVSPGESVFIENGSSNALLARTLAEQKDVTIITVSSYIAHLLKETPCEVILLGGIYQKKSESMVGPLTRQFIHQVHFSKAFIGIDGWQADTGFTGRDMMRSDVVNAVLEKGSEAIVLTDSSKFGCVHPYPLGPLSRFHRVITDSKISASDQMQLEHAGLLVNVIGSSV” the value was “not soluble”. For the sequence “MRPDVAFALPALAGGGVERVYLDLAGAMVKEGLRVDFVLARAEGPLLAQLPQGVRLWDLGVPRRLPLLRAYTPLGVYLAQARPRVVLPDWDYLDWVPLQAAWRSRTPFLWVLHNAPAYLKDVPNPVKRHTALWAARQTLKRAVNHPLGRVGAVSRGVAQAFARFGGVPEERICVLPNPIHVDRVRRLSHENVPLPATPYFLALGRLHPQKGFSLLLEAFSIFAKHHPDVHLLILGEGPERPRLEKLAHTLGLTSRVAFLGFVVNPYPYLRGAKALVITSRYEGFSMVALEALALRVPVVAVESEGGLLEALGDGRFGIVTPRSPQALAHAMERVLSDGFAWDETALKDHLNQYSPEAALRSYMSVLEEIWR”, the “soluble on expression in E. coli” value is reported as “soluble”.

On to “MSLARSLNNQRSRLVALVVNAIGNPCEAEEQQLLVHRLQARQLLPIILCCADHSDRLQLMRLASTYQVDHVVVFSDMVSMQDAVDIFHTTKPIIVSFEPLENESVSSIRIDGAEAADEIIDKIVRDGKKRFAYLSGTNSSWIDKLRRKWFADALAKRGLAFEAQAFGDYSYDSGFKEAVLLLHRDKVDAIICGNDVMAIGARDAARRVLGKNTPDDIAIVGQDGIAMAAWDCNDLTTLSLDHVAFIDAVVELIERHDAEVEGPHSITLTCTARWGSEGHHHHHH”, for which the “soluble on expression in E. coli” value was “not soluble”.

For “MNGAELIIQEINKEAERKIEYILNEARQQAEKIKEEARRNAEAKAEWIIRRAKTQAELEKQRIIANARLEVRRKRLAIQEEIISSVLEEVKRRLETMSEDEYFESVKALLKEAIKELNEKKVRVMSNEKTLGLIASRIEEIKSELGDVSIELGETVDTMGGVIVETEDGRIRIDNTFEARMERFEGEIRSTIAKVLFG”, the “soluble on expression in E. coli” value is given as “soluble”. As for “MIQYYYTKKEWGVVMEKEELKILEELRRILSNKNEAIVILNNYFKGGVGKSKLSTMFAYLTDKLNLKVLMIDKDLQATLTKDLAKTFKVELPRVNFYEGLKNGNLASSIVHLTDNLDLIPGTFDLMLLPKLTRSWTFENESRLLATLLAPLKSDYDLIIIDTVPTPSVYTNNAIVASDYVMIPLQAEEESTNNIQNYISYLIDLQEQFNPGLDMIGFVPYLVDTDSATIKSNLEELYKQHKEDNLVFQNIIKRSNKVSTWSKNGITEHKGYDKKVLSMYKNVFFEMLERIIQLENEKE”, the “soluble on expression in E. coli” value is on record as “soluble”. For “MDYHIQEEKILEVLKENVYGLRGSIAFSGGLDSSLLYVISDRNLVPYTVGYSFSHDVNRAKFVLSLLNGSGKYVTLDEINIENYVKYLKSEYPDINKVEISFELVLEILLENVDSDLLVTGQGADELFFGYKRSVNEMDNSLQMERLLKRTIPREKDMAKRQGKELVTPFLDDRILKLASEISPAYHCLYGGKKALREIAKIAGLPEEVYGYRKKAAQYGSGIDKALKSVSYFGLF” the value was “not soluble”.
